Test results taken from patent CN116769021A.
Like-named read-outs stand apart in the source and are kept apart here.

B1: 抗AHSV VP7单克隆抗体1H4 (monoclonal antibody 1H4 against African horse sickness virus VP7 protein) (antibody, V domains shown)
VH: EVQLVESGGGLVQPGGSLKLSCAASGFTFSRYGMSWVRQTPDKRLELVAIIKNDGRSSYYPDSVKGRFTIYRDNAKNTLYLQMSTLKSEDTAMYHCAYGSSLYWYFDVWGAGTTVTVSS
VL: DVLMTQTPLSLPVSLGDQASISCRSSQSIVHSNGNTYLEWYLQKPGQSPKLLIYKVSNRFSGVPARFSGSGSGTGFTLKISRVEAEDLGVYYCFQGSHVPPTFGGGTKLEIK

Columns and labels:
[1] = molecular target: AHSV VP7重组蛋白 (recombinant African horse sickness virus VP7 protein) (African horse sickness virus)
[2] = molecular target: AHSV VP7重组蛋白 (recombinant African horse sickness virus VP7 protein) (African horse sickness virus); assay: indirect ELISA on coated recombinant VP7 (0.5 ug/mL); 1H4 at 0.25 ug/mL (1:8000)
[3] = molecular target: AHSV VP7重组蛋白 (recombinant African horse sickness virus VP7 protein) (African horse sickness virus); assay: indirect ELISA on coated recombinant VP7 (0.5 ug/mL); 1H4 at 1 ug/mL (1:2000)
[4] = molecular target: AHSV VP7重组蛋白 (recombinant African horse sickness virus VP7 protein) (African horse sickness virus); remark: listed apart in the source
[5] = molecular target: AHSV VP7重组蛋白 (recombinant African horse sickness virus VP7 protein) (African horse sickness virus); assay: indirect ELISA on coated recombinant VP7 (0.5 ug/mL); 1H4 at 0.5 ug/mL (1:4000)
[6] = molecular target: AHSV VP7重组蛋白 (recombinant African horse sickness virus VP7 protein) (African horse sickness virus); assay: indirect ELISA on coated recombinant VP7; end-point titer by P/N > 2.1

Molecule	OD450 [1]	OD450 [2]	OD450 [3]	OD450 [4]	OD450 [5]	效价 (ELISA titer, P/N > 2.1) (dilution factor (1:x)) [6]	效价对应的稀释浓度 (antibody concentration at the end-point titer) [6]
阴性抗体 (negative antibody)	0.0378 OD450						
B1		2.93 OD450	4.09 OD450	3.58 OD450	2.87 OD450	1.02e+06	1.95 ng/mL
